The values below are quoted from earlier work in patent US20230372299A1, “PREPARATION OF TEREVALEFIM AND FORMULATIONS THEREOF” (Angion Biomedica Corp., priority 2020, published 2023).

Usually half-life stands for how long it takes for the measured level to halve. As for “HGF/SF: pleiotropic growth factor that stimulates cell growth, cell motility, morphogenesis and angiogenesis”, the half-life is 3 to 5 min.
